Assay results: patent US20140087995A1 (published 2014)
Numbered stars: 1 amine (or outer) side, 2 acyl side, 3 side chain; on linkers, the order of the positions; unused ones are H or OH. Bridge positions count the residues as written; N and C are the ends. Side chains are listed from the residue outwards. Ends that are not written are not given here. * marks the point of attachment. C20 diacid = O=C(O)CCCCCCCCCCCCCCCCCCC(=O)*; γGlu = O=C(O)[C@H](CCC(=O)[*:2])N[*:1]

Key:
[1] = biological target: T1, human amylin receptor (amylin 3(a) receptor: human calcitonin receptor with RAMP-3) (human, UniProt P30988 25-474; O60896 24-148); assay: SPA competition with 125I-rat amylin on membranes of BHK cells with human calcitonin receptor and RAMP-3 (Assay V)
T1 construct: whole, on cells; Assay used cell membranes of the Amylin 3(a)/CRE-luc BHK cells, not intact cells; also called hAmylin-R; hAmylinR
T1 sequence (looked up) 1: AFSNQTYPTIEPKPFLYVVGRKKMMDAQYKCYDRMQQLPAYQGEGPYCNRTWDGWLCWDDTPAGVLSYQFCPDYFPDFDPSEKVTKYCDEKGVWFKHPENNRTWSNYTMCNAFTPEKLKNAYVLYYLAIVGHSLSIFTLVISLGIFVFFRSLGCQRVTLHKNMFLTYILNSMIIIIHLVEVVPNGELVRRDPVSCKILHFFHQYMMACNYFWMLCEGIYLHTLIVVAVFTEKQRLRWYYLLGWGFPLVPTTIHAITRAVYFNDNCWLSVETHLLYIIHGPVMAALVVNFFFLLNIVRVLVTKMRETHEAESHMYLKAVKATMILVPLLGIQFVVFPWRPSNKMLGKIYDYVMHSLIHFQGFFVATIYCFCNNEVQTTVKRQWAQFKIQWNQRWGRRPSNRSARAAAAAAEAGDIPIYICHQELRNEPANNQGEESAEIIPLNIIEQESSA
T1 sequence (looked up) 2: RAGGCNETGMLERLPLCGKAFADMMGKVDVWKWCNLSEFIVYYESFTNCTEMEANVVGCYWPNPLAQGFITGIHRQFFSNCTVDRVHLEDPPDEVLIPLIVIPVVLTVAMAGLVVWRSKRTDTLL
How it was run: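 One-site competition analysis of SPA counts yielded IC₅₀ as a measure of affinity. Membranes were at 35 ng/μL final; incubation was 120 min at 25° C, pH 7.4.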

[2] = biological target: T2, human calcitonin receptor (human, UniProt P30988 25-474); assay: SPA competition with 125I-calcitonin on membranes of BHK cells with human calcitonin receptor (Assay VII)
T2 construct: whole, on cells; Assay used cell membranes, not intact cells; also called hCTR; hCT
T2 sequence (looked up): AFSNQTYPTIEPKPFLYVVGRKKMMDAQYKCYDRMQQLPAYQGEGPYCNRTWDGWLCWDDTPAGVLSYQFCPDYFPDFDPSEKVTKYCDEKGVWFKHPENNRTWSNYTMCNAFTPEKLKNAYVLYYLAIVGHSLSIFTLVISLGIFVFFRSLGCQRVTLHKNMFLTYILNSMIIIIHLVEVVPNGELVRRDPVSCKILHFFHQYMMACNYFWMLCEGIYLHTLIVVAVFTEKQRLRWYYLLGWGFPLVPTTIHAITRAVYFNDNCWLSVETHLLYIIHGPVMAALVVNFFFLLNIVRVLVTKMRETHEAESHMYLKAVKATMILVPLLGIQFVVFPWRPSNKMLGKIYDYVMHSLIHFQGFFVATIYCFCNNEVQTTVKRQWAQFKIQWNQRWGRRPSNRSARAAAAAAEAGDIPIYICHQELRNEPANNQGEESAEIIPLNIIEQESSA
How it was run: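 BHK hCTR membranes 35 ng/μL + SPA beads 0.05 mg/well; buffer 50 mM Hepes pH 7.4, 1 mM CaCl2, 5 mM MgCl₂, 0.1% OA, 0.02% Tween20. 120 min, 25° C., shaking. Scintillation count; IC50 by one-site binding competition.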

[3] = biological target: T2, human calcitonin receptor; assay: ratio IC50 hCTR / IC50 hAmylin-R (reference: human amylin receptor), SPA competition assays
How it was run: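 Competition binding by SPA uses membrane preparations (35 ng/μL final) in pH 7.4 Hepes buffer with 1 mM CaCl2 and 5 mM MgCl₂. Incubation lasts 120 min at 25° C, and IC₅₀ comes from one-site fitting.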

B1: N^ε1-[(4S)-4-carboxy-4-(19-carboxynonadecanoylamino)butanoyl]-[Glu14,Arg17,Pro21,Pro27,His35]-h-amylin (peptide)
peptide: K([γGlu-C20 diacid])CNTATCATQRLAEFLRHSSPNFGAIPSSTNVGSHTY-NH2
modifications: disulfide 2-7; N-terminus assumed
SMILES: CC[C@H](C)[C@H](NC(=O)[C@H](C)NC(=O)CNC(=O)[C@H](Cc1ccccc1)NC(=O)[C@H](CC(N)=O)NC(=O)[C@@H]1CCCN1C(=O)[C@H](CO)NC(=O)[C@H](CO)NC(=O)[C@H](Cc1c[nH]cn1)NC(=O)[C@H](CCCNC(=N)N)NC(=O)[C@H](CC(C)C)NC(=O)[C@H](Cc1ccccc1)NC(=O)[C@H](CCC(=O)O)NC(=O)[C@H](C)NC(=O)[C@H](CC(C)C)NC(=O)[C@H](CCCNC(=N)N)NC(=O)[C@H](CCC(N)=O)NC(=O)[C@@H](NC(=O)[C@H](C)NC(=O)[C@@H]1CSSC[C@H](NC(=O)[C@@H](N)CCCCNC(=O)CC[C@H](NC(=O)CCCCCCCCCCCCCCCCCCC(=O)O)C(=O)O)C(=O)N[C@@H](CC(N)=O)C(=O)N[C@@H]([C@@H](C)O)C(=O)N[C@@H](C)C(=O)N[C@@H]([C@@H](C)O)C(=O)N1)[C@@H](C)O)C(=O)N1CCC[C@H]1C(=O)N[C@@H](CO)C(=O)N[C@@H](CO)C(=O)N[C@H](C(=O)N[C@@H](CC(N)=O)C(=O)N[C@H](C(=O)NCC(=O)N[C@@H](CO)C(=O)N[C@@H](Cc1c[nH]cn1)C(=O)N[C@H](C(=O)N[C@@H](Cc1ccc(O)cc1)C(N)=O)[C@@H](C)O)C(C)C)[C@@H](C)O
- IC50 [1]: 0.992 nM
- IC50 [2]: 26.1 nM
- Ratio hCT/hAmylin binding [3]: 26.4

B2: N^ε1-[(4S)-4-carboxy-4-(19-carboxynonadecanoylamino)butanoyl]-[Glu14,Arg17,Pro21,Pro27,Pro34,Arg35]-h-amylin (peptide)
peptide: K([γGlu-C20 diacid])CNTATCATQRLAEFLRHSSPNFGAIPSSTNVGPRTY-NH2
modifications: disulfide 2-7; N-terminus assumed
SMILES: CC[C@H](C)[C@H](NC(=O)[C@H](C)NC(=O)CNC(=O)[C@H](Cc1ccccc1)NC(=O)[C@H](CC(N)=O)NC(=O)[C@@H]1CCCN1C(=O)[C@H](CO)NC(=O)[C@H](CO)NC(=O)[C@H](Cc1c[nH]cn1)NC(=O)[C@H](CCCNC(=N)N)NC(=O)[C@H](CC(C)C)NC(=O)[C@H](Cc1ccccc1)NC(=O)[C@H](CCC(=O)O)NC(=O)[C@H](C)NC(=O)[C@H](CC(C)C)NC(=O)[C@H](CCCNC(=N)N)NC(=O)[C@H](CCC(N)=O)NC(=O)[C@@H](NC(=O)[C@H](C)NC(=O)[C@@H]1CSSC[C@H](NC(=O)[C@@H](N)CCCCNC(=O)CC[C@H](NC(=O)CCCCCCCCCCCCCCCCCCC(=O)O)C(=O)O)C(=O)N[C@@H](CC(N)=O)C(=O)N[C@@H]([C@@H](C)O)C(=O)N[C@@H](C)C(=O)N[C@@H]([C@@H](C)O)C(=O)N1)[C@@H](C)O)C(=O)N1CCC[C@H]1C(=O)N[C@@H](CO)C(=O)N[C@@H](CO)C(=O)N[C@H](C(=O)N[C@@H](CC(N)=O)C(=O)N[C@H](C(=O)NCC(=O)N1CCC[C@H]1C(=O)N[C@@H](CCCNC(=N)N)C(=O)N[C@H](C(=O)N[C@@H](Cc1ccc(O)cc1)C(N)=O)[C@@H](C)O)C(C)C)[C@@H](C)O
- IC50 [1]: 0.163 nM
- IC50 [2]: 6.3 nM
- Ratio hCT/hAmylin binding [3]: 38.6
